B1: SHC-transforming protein 1 (Homo sapiens), P29353-1 (parent)
chain: MDLLPPKPKYNPLRNESLSSLEEGASGSTPPEELPSPSASSLGPILPPLPGDDSPTTLCSFFPRMSNLRLANPAGGRPGSKGEPGRAADDGEGIVGAAMPDSGPLPLLQDMNKLSGGGGRRTRVEGGQLGGEEWTRHGSFVNKPTRGWLHPNDKVMGPGVSYLVRYMGCVEVLQSMRALDFNTRTQVTREAISLVCEAVPGAKGATRRRKPCSRPLSSILGRSNLKFAGMPITLTVSTSSLNLMAADCKQIIANHHMQSISFASGGDPDTAEYVAYVAKDPVNQRACHILECPEGLAQDVISTIGQAFELRFKQYLRNPPKLVTPHDRMAGFDGSAWDEEEEEPPDHQYYNDFPGKEPPLGGVVDMRLREGAAPGAARPTAPNAQTPSHLGATLPVGQPVGGDPEVRKQMPPPPPCPGRELFDDPSYVNVQNLDKARQAVGGAGPPNPAINGSAPRDLFDMKPFEDALRVPPPPQSVSMAEQLRGEPWFHGKLSRREAEALLQLNGDFLVRESTTTPGQYVLTGLQSGQPKHLLLVDPEGVVRTKDHRFESVSHLISYHMDNHLPIISAGSELCLQQPVERKL

Variants of: B1
Conditions: with grb2_human GRB2, P62993

Row | effect of a mutation on the interaction | Variant
1 | decreasing interaction | P47A;P50A

From IntAct's records for PubMed 16520382
